According to the nanobody polyreactivity screen of Harvey et al. (2022):

Assay: yeast display, Sf9 membrane polyspecificity reagent, FACS + sequencing; frameworks hold sequencing errors
Summary of the method: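 A synthetic nanobody library was expressed on Saccharomyces cerevisiae BJ5465 by galactose induction for 36–48 hours. The library was stained for 1 hour at 4 °C with 10% biotinylated, detergent-solubilized Sf9 membrane reagent and enriched with streptavidin microbeads before FACS. Low and high (top ~1%) gates were set on anti-HA fluorescence for expression and streptavidin fluorescence for reagent binding, and each polyreactivity label reflects the gate of origin.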

| Sequence | polyreactivity (PSR sort gate) |
| --- | --- |
| QEQLQESGGGQVQAGGSLLLSCAASGNIIRYYYMGWYRQAPGKERELVAAITYGTSTNYADSVKGRFTISRDNATNTEFLQMNSLKPEDTAVYYCAVDVNYGDPIDNWGQGTQVTVSS | high polyreactivity |
| QEQLQESGGGQVQAGGSLLLSCAASGNIIRYYYMGWYRQAPGKERELVAAITYGTSTNYADSVKGRFTISRDNEKNTVYLQMNSLKPEDSAVYYFAVVVNYGDPLVNWGQGTQVTVSS | high polyreactivity |
| QEQLQESGGGQVQDGGSLRMSCAASGSISYASGLCWYSQEQGKEREFVASIDPGAITNYADSVKGRFTISHDNAKNTVYLQMNRLKPEDTAVYYCAADGHGGYGYWGQGTQVTVSS | high polyreactivity |
| QEQLQESGVGQVQAGGSLLLSCAASGNIIRYYYMGWYRQAPGKERELVAAITYGTSTNYADSVKGRFTISRDNAKNSVYLQINSLKPEDTAVYYCAATAYWFYAKYYYWGQGTQVTVSS | high polyreactivity |
| QEQLVESGGGLVQAGGSLRLSCGASRSIVHYYAMGWYRQAPGKEREFVAAIAWGGDSTYYADSVKGRFTNSRDNANNTVYFQMYSLKPEDTAVYYCAADGPGGIGNGAGYDYWGQGTEVTVSS | low polyreactivity |
| QFHLVESGGGLFQAGGSLRISCAASGRTLLVNAMGWYRQAPGKERELVAVITRGGSTNYADSVKGRFTISRDNAKNTVYLQMNSLKPEDTAVYYCAKQFSPYRSYGPVVRYDYWGQGTQVTVSS | low polyreactivity |
| QFQHVESGGCLDQAGRSLRLSSAASGYIFVNAMGWYRQPPGKEMELVAAISSGGSTHYADSVKGRFTISRDNAKYTVYLQMNSLKPEDTAVYYCAAGSFYYGIVQGWYDYWGQGTQVTVSS | high polyreactivity |
| QFQIVDSVGGLVQAGGSLRLSCAASGRTFSYYSLGWYREATGKERELVASIRKSGASTYYADSVKGRFTISRDNAKNTVYLQMNSLKPEDTAVYYCNTAGWSFYSGRYDYWGQGTQVTVSS | high polyreactivity |
| QFQLDESGGGLVQAGGSLRLSCAASGLTFSIYAMGWYRKARGKERELVAAITGRGGRTYYADSVKGRFTISRENAKNTVYLQMKSLKPEDTAFYYCADRYRGTDFDYWGQGTQVTVSS | high polyreactivity |
| QFQLEESGGGLVQAGGSLRLSCAASGFIFTDNGMGRYRQATGKERELVAAINSDGSTYYADSVKGRFTISRDNAKNTVYLQMTSLIPEYTAVYYCAAGSFDRYFWYDYWGQGTQVTVSS | low polyreactivity |
| QFQLEESGVGLVQAGGSLRLSCAASGFTFNVYAMGWYRQAPGKERELVAAIRWGAGSTYYADSVKGRFTISRDNAKNTVYLQMNSLKPEDTAVYYCAKDSGVWRYDHWGQGTQVTVSS | low polyreactivity |
| QFQLLESGGGLVQAGGSLRLSCAASGSIFTRNAIGWYRQAPGSERELVAAITSAGSTSYADSVKGRFTISRDNAKNTVYLQMNSQKPEDTAVYYCNTVPGRYRTFDYWGQGTQVTVSS | high polyreactivity |
| QFQLLESGGGLVQAGGSLRLSCADSGSIYLYYARGWYRQAPGKESELVAAITYSGVSTYDAVSVKGRFTISRDTSNNTVYLQMNSLKPEDNAFYDCARRWNAFGSKGVYWGQGTQVTVSS | high polyreactivity |
| QFQLLESGGGLVQAGSSLRLSCAASGSTFKYYTMGWYRQAPGKERELVATIRGAGTTYADSVKGRFTISRDNAKHTVYLQMNSLKPEDTAVYYCARLPRGDMDYWGQGTQVTVSS | low polyreactivity |
| QFQLQESCCGLVQAGGSLRLSCAASGTISYAPQMGWYRQAPGKERELVAGITIGGTTYYADSVKGRFTISRDNAKNTVYLQMNSLSPGDTAVYYCAAHSEQYTPFYYWGQGTQVTVSS | low polyreactivity |
| QFQLVDSGGALVQAGGSLRLSCAASGFTFYPYAMGWYRQAPGKERELVAAISKRGGSTYYADSVKGRFTISRDHAKNTVYLQMNSLNPEDTAVYYCIAFFNGELYYWGQGTQVTVSS | high polyreactivity |
| QFQLVESCAGLVQAGGSLRLSCADSGRIFRQYAMGWYIPAPGKERELVASITRNGGSTYYADSVKGRFTISRDNAKNTVYLQMNSQKPEDTAVYYCAKDVKGSYAYDSWGQGTQVTVSS | high polyreactivity |
| QFQLVESGGGFVQAGGSLRLSCAASGRIFGPYAMGWYRQAPGKERELVAAISFSGSGTYYADSVKGRFTISRDNAKNTVYLQMNSLKPEDTAVYYCAATSRKIVAYDHDYWGQGTQVTVSS | low polyreactivity |
| QFQLVESGGGFVQAGGSLRLSCAASGYTFQRYAMGWYRQAPGKERELVATISKRGGSTYYADSVKGRFTISRDNAKNTDYLQMNSLKPEDTAVYYCNKLRGLHNGYDYWGQGTQVTVSS | high polyreactivity |
| QFQLVESGGGLDQAGGSLRLSCAASGFTFQYYAMGWYRQAPGKERELVAAITRGDSTNYADSVKGRFTISRDNAKNTVYLQMNSLKPEDTAVYYCAAGSAPSYWGGWYYERDYWGQGTQVTVSS | low polyreactivity |
| QFQLVESGGGLDQAGGSLRLSCAASGITFGNYAMGWYRQAPGKERELVAAITGSGGRTNYADSVKGRFTISRDNAKNTVYLQMNSLKPEDTAVYYCNRRQYGRKKQYDYWGQGTQVTVSS | high polyreactivity |
| QFQLVESGGGLDQAGGSLRLSCAASGLIFSTYSMGLYIQARGKETELVAAISGTGSTYYADSVKGRFTISRDNAKNTVYLQMNSLKPEDTAVYYCNADTYYAGRRYDYWGQGTQVTVSS | low polyreactivity |

| Sequence | polyreactivity (PSR sort gate) |
| --- | --- |
| QFQLVESGGGLDQAGGSLRLSCAASGLIFYNYDMGWYRQAPGKERELVAAITLDGGITYYADSVKGRFTISRDNAKNTVYLQLNSLKPEDTAVYYCNRQYRLYGGYPSNLYEYWGQGTQVTVSS | high polyreactivity |
| QFQLVESGGGLDQAVGSLRLSCAASGSIFYPNVMGGYREAPGKEREMVAAIRTSGGSTYYADSVQGRFTISRETAKNTVYLQMNSLKPEDTAVYYCAAKRTGNGYPRSGYYRYEYWGHGTQVTVSS | high polyreactivity |
| QFQLVESGGGLVHAGGSLRLSCAASGITYWAYSMGWYRQARGKERELVAAIRFRGRTYYADSVKGRFTISRDNAKNSVYLQMNSLKAEDTAVYYFDADLSYWDDFEYWGQGNQVTVSS | low polyreactivity |
| QFQLVESGGGLVQAAGSLRLSCAASGSTFVSNAMGWYRQAPGKDRELVAAITRSGGSTRDADSVKGRLTISRDNAKNTGYLQMNSLKPEDTAVYYCAAPHKYYGLRYYYWGQGTQVTVSS | high polyreactivity |
| QFQLVESGGGLVQAGCSLRLSCAASGGTFGLYAMGWYRQAPGKERELVAANTWSDSSTYYADSVKGRFTISRDNAKNTVYLQMNSLKPEDNAVYYCAADYGDADTWWPSAEYHSGRDYWGQGTQVTVSS | low polyreactivity |
| QFQLVESGGGLVQAGCSLRLSCAASGLTVGSNTMGWDRQAPGKERELVAAITSNGGSTYYADSVKGRFTISRDNAKNTVYLQMNSLIPEDTAVYYCAADDRGLISRRGYFYLSYDYWGQGTQVTVSA | low polyreactivity |
| QFQLVESGGGLVQAGGILRLSCAASGFTFRVNAMGWYRQAPGKERELVASITVSDGRTYYADSVKGRFTISRDNAKNTVYLQMNSLKPEDCAVYYCAADYKGAFTTDWSSEYEYWGQGTQVTVSS | low polyreactivity |
| QFQLVESGGGLVQAGGSHRLSCAASGRIFSYYAMGWYRQAPGNERELVATITSGGNTNYADSVKGRFTISLDNAKNTVYLQMNSLKPEDTAVYYCKAAERQWYDAYDYWGQGTQVTVSS | low polyreactivity |
| QFQLVESGGGLVQAGGSLLLSCAASGRTFDWYAMGWYRLAPGKERELVAGISGSSGRTYYADSVKGRFTISRDNAKNTVYLQMNSLKPEDTAVYYCAADFSFWKLVYYQSGRYDYWGQGTQVTVSS | high polyreactivity |
| QFQLVESGGGLVQAGGSLRLICAASGFIFRTYAMGWYRQAPGKAREFVAAITFSAGSTYYADSVKGRFTISRDNAKNTVYLQMNSLLPEDSAVYDCNVLKSWYGYSVTGRYVYWGQGTQVTVSS | low polyreactivity |
| QFQLVESGGGLVQAGGSLRLRCAPSGNTLIVKAMGWYRQAPGKEMELVAAITRDGRTNYADSVKGRFTISRDNAKNTVYLQMNSLKPEDTAVYYCAAEGVPDALDRDYWGQGTQVTVSS | low polyreactivity |
| QFQLVESGGGLVQAGGSLRLSCAASGCTLQRNNRGWYRQAPGKDSEFVARISRRACSTYYADSVKGRITISRDNAKNTVYLQMNSLKPEDTAVYYCSTEDRGLTTRYPYDYWGQGTQVTVSS | high polyreactivity |
| QFQLVESGGGLVQAGGSLRLSCAASGFIFGLYAMGWYRQAPGKERELVAAISRSGGSTYYADSVKGRFTISRDNAKNTVYLQMNSLKPEDTAVYYCNARYSWPRANWYDYWGQGTQVTVSS | high polyreactivity |
| QFQLVESGGGLVQAGGSLRLSCAASGFIFKRYTMGWYRQAPGKERELVAAISFSGGSTYYADSVKGRFTISRDNAKNTVYLQMNSLKPEDTAVYYCAKVYRVVPATQKEYGYWGQGTQVTVSS | high polyreactivity |
| QFQLVESGGGLVQAGGSLRLSCAASGFIFKSNAMGWYRQAPGKERELVAAITKRGGSTYYADSVKGRFTISGDYAKNTVYLQMNSLKPEDTAVYYCAVRKPYSRYTVNYDSWGQGTQVTVSS | high polyreactivity |
| QFQLVESGGGLVQAGGSLRLSCAASGFIFPLYTMGWYRQAPGKETELVAAIDGGGTTYADSVKGRFTISRDNAKNTVYLQMNSLKPEDTAVYYCAADWYYQYSIYRYGYWGQGTQVTVSS | low polyreactivity |
| QFQLVESGGGLVQAGGSLRLSCAASGFIFQRYAMGWYRQAPGKERELVAAINFSGGSTYYADSVKGRFTISRDNAKNTVYLQMNSLKPEDTAVYYCNTGNITQTKSIFDYWGQGSQVTVSS | high polyreactivity |
| QFQLVESGGGLVQAGGSLRLSCAASGFIFTNYAMGWYRQAPGKEWELVAAINRSGGRTYYADSVKGRFTISRDNAKNTVYLQMNSLKPEDNAVYYCAAKGVSYRPAYDYWGQGTQVTVSS | high polyreactivity |
| QFQLVESGGGLVQAGGSLRLSCAASGFNFGWYDMGWYRQAPGKERELVASISWSGSSTYYADSVKGRFTISRDNAKNTVYLQMNSLKPEDTAVYYCATPYWRRYDYWGQGTQVTVSS | high polyreactivity |
| QFQLVESGGGLVQAGGSLRLSCAASGFTFSGYAMGWYRQAPGKERELVAAINWRGDSTYYADSVKGRFTISRDNAKNTVYLHMNSLKPEDTAVYYCYVVLGPQRYSTDYGYWGQGTQVTVSS | high polyreactivity |
| QFQLVESGGGLVQAGGSLRLSCAASGFTFTVYAMGWYRQAPGKERELVAAITRGTSTYADSVKGRFTISRDNAKNTVYLQMNSLKPEDTAVYYCAARSSPWYTRYRSSELFDYWGQGTQVTVSS | high polyreactivity |
